B1: PPEF2 (parent)
chain: AFKAAALIQRWYRRYVARLEMRRR
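Further: lentivirally expressed fusions sorted by FACS into six bins by GFP to DsRed ratio, PSI derived from sequencing read proportions per bin multiplied by bin number.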

The variants in this data set derive from B1. Briefly: protein stability index of a GFP-peptide fusion (GPS, HEK-293T) (PSI 1-6); higher = more stable. The conditions noted are these: c terminus: a fixed tail appended.
In the case of AAKAAALIQRWYRRYVARLEMRRR [F2A], the protein stability index worked out at 3.87. Consider AEKAAALIQRWYRRYVARLEMRRR [F2E], for which the protein stability index is 4.95. Consider AGKAAALIQRWYRRYVARLEMRRR [F2G], for which the protein stability index stood at 2.87.

In the case of AFKAAALIQDWYRRYVARLEMRRR [R10D], the protein stability index is 1.67. Regarding AFKAAALIQAWYRRYVARLEMRRR [R10A], the protein stability index amounted to 2.4. For AFKAAALIQSWYRRYVARLEMRRR [R10S] the value was 2.27; for AFKAAALIQNWYRRYVARLEMRRR [R10N], 3.6. On to AFKAAALIQHWYRRYVARLEMRRR [R10H], for which the protein stability index turned out to be 2.51. In the case of AFKAAALIQGWYRRYVARLEMRRR [R10G], the protein stability index turned out to be 1.88. Turning to AFKAAALIQFWYRRYVARLEMRRR [R10F], the protein stability index came to 2.88. As for AFKAAALIQLWYRRYVARLEMRRR [R10L], the protein stability index is 1.71.

Regarding AFKAAALIQTWYRRYVARLEMRRR [R10T], the protein stability index came to 2.1. For the variant AFKAAALISRWYRRYVARLEMRRR [Q9S], the protein stability index was determined as 2.54. As to AFKAAALIVRWYRRYVARLEMRRR [Q9V], the protein stability index came out at 2.99. On to AFKAAALILRWYRRYVARLEMRRR [Q9L], for which the protein stability index turned out to be 3.44. As for AFKAAALINRWYRRYVARLEMRRR [Q9N], the protein stability index was 2.1. Turning to AFKAAALIHRWYRRYVARLEMRRR [Q9H], the protein stability index is 2.16. For AFKAAALIIRWYRRYVARLEMRRR [Q9I] the value was 2.27; for AFKAAALIFRWYRRYVARLEMRRR [Q9F], 2.85; for AFKAAALIWRWYRRYVARLEMRRR [Q9W], 2.98. Regarding AFKAAALIARWYRRYVARLEMRRR [Q9A], the protein stability index is 3.25.

With AFKAAALICRWYRRYVARLEMRRR [Q9C], the protein stability index stood at 2.71. With AFKAAALITRWYRRYVARLEMRRR [Q9T], the protein stability index was found to be 3.39. Consider AFKAAALIDRWYRRYVARLEMRRR [Q9D], for which the protein stability index was determined as 1.86. For AFKAAALIERWYRRYVARLEMRRR [Q9E] the value was 1.59. Take AFKAAALIYRWYRRYVARLEMRRR [Q9Y]: the protein stability index is 2.23.

Turning to AFKAAALIKRWYRRYVARLEMRRR [Q9K], the protein stability index was found to be 3.59. As to AFKAAALIRRWYRRYVARLEMRRR [Q9R], the protein stability index is 3.48. For the variant AFKAAALIMRWYRRYVARLEMRRR [Q9M], the protein stability index was found to be 2.37.

As for AFKAAALIQRWYRLYVARLEMRRR [R14L], the protein stability index was 1.84. Turning to AFKAAALIQRWYREYVARLEMRRR [R14E], the protein stability index came out at 2.32.

In the case of AFKAAALIQRWYRIYVARLEMRRR [R14I], the protein stability index turned out to be 1.84. Turning to AFKAAALIQRWYRDYVARLEMRRR [R14D], the protein stability index came out at 1.66. The figure for AFKAAALIQRWYRAYVARLEMRRR [R14A] is 2.17; for AFKAAALIQRWYRKYVARLEMRRR [R14K] it is 3; for AFKAAALIQRWYRFYVARLEMRRR [R14F] it is 2.29.

For AFKAAALIQRWYRHYVARLEMRRR [R14H], the protein stability index was 2.42. As to AFKAEALIQRWYRRYVARLEMRRR [A5E], the protein stability index worked out at 4.4.

With AFKAPALIQRWYRRYVARLEMRRR [A5P], the protein stability index came to 2.08. With AFKAFALIQRWYRRYVARLEMRRR [A5F], the protein stability index was found to be 1.98.

Take AFKAIALIQRWYRRYVARLEMRRR [A5I]: the protein stability index came out at 2.4. For the variant AFKAQALIQRWYRRYVARLEMRRR [A5Q], the protein stability index is 1.85.

Turning to AFKANALIQRWYRRYVARLEMRRR [A5N], the protein stability index is 2.11. For AFKAGALIQRWYRRYVARLEMRRR [A5G] the value was 2.94; for AFKARALIQRWYRRYVARLEMRRR [A5R], 2.39; for AFKATALIQRWYRRYVARLEMRRR [A5T], 2.55. Turning to AFKAHALIQRWYRRYVARLEMRRR [A5H], the protein stability index was found to be 2.67. Consider AFKAAASIQRWYRRYVARLEMRRR [L7S], for which the protein stability index was found to be 2.93.

AFKAAANIQRWYRRYVARLEMRRR [L7N]: the protein stability index is 2.64.

As for AFKAAAMIQRWYRRYVARLEMRRR [L7M], the protein stability index came to 2.25.

As to AFKAAAQIQRWYRRYVARLEMRRR [L7Q], the protein stability index was 4.96. With AFKAAAGIQRWYRRYVARLEMRRR [L7G], the protein stability index turned out to be 2.33. Consider AFKAAATIQRWYRRYVARLEMRRR [L7T], for which the protein stability index turned out to be 4.39. The figure for AFKAAAAIQRWYRRYVARLEMRRR [L7A] is 4.83; for AFKAAARIQRWYRRYVARLEMRRR [L7R] it is 5.03; for AFKAAAFIQRWYRRYVARLEMRRR [L7F] it is 3.21. For AFKAAAIIQRWYRRYVARLEMRRR [L7I], the protein stability index came to 4.77. Regarding AFRAAALIQRWYRRYVARLEMRRR [K3R], the protein stability index stood at 3.84. As for AFYAAALIQRWYRRYVARLEMRRR [K3Y], the protein stability index turned out to be 2.87. For AFLAAALIQRWYRRYVARLEMRRR [K3L] the value was 1.75. Turning to AFIAAALIQRWYRRYVARLEMRRR [K3I], the protein stability index worked out at 2.66.

For AFEAAALIQRWYRRYVARLEMRRR [K3E], the protein stability index was 3.71. As for AFDAAALIQRWYRRYVARLEMRRR [K3D], the protein stability index is 2.27. Regarding AFCAAALIQRWYRRYVARLEMRRR [K3C], the protein stability index is 1.86. As to AFSAAALIQRWYRRYVARLEMRRR [K3S], the protein stability index stood at 4.09. In the case of AFFAAALIQRWYRRYVARLEMRRR [K3F], the protein stability index amounted to 2.38. Turning to AFKAAALIQRWRRRYVARLEMRRR [Y12R], the protein stability index worked out at 1.15. For the variant AFKAAALIQRWVRRYVARLEMRRR [Y12V], the protein stability index came out at 2.07.

With AFKAAALIQRWKRRYVARLEMRRR [Y12K], the protein stability index stood at 1.78. AFKAAALIQRWHRRYVARLEMRRR [Y12H]: the protein stability index stood at 2.29. AFKAAALIQRWCRRYVARLEMRRR [Y12C]: the protein stability index is 2.14. Take AFKAAALIQRWTRRYVARLEMRRR [Y12T]: the protein stability index was determined as 2.17. In the case of AFKAAALIQRWPRRYVARLEMRRR [Y12P], the protein stability index stood at 2.44. Consider AFKAAALIQRWMRRYVARLEMRRR [Y12M], for which the protein stability index was determined as 2.95. Regarding AFKAAALIQRWERRYVARLEMRRR [Y12E], the protein stability index stood at 3.14.

AFKAAALIQRWNRRYVARLEMRRR [Y12N]: the protein stability index amounted to 1.62. Take AFKAAALIQRWFRRYVARLEMRRR [Y12F]: the protein stability index turned out to be 3.17.

AFKAAALIQRWARRYVARLEMRRR [Y12A]: the protein stability index was 2.35. Regarding AFKAAALIQRWIRRYVARLEMRRR [Y12I], the protein stability index stood at 2.53.

With AFKAAALIQRWGRRYVARLEMRRR [Y12G], the protein stability index was 1.49. Regarding AFKAAALHQRWYRRYVARLEMRRR [I8H], the protein stability index is 2.16.

In the case of AFKAAALLQRWYRRYVARLEMRRR [I8L], the protein stability index turned out to be 3.02. On to AFKAAALCQRWYRRYVARLEMRRR [I8C], for which the protein stability index was determined as 3.52. With AFKAAALVQRWYRRYVARLEMRRR [I8V], the protein stability index is 3.41. With AFKAAALSQRWYRRYVARLEMRRR [I8S], the protein stability index turned out to be 4.29. Take AFKAAALTQRWYRRYVARLEMRRR [I8T]: the protein stability index turned out to be 2.37. As for AFKAAALRQRWYRRYVARLEMRRR [I8R], the protein stability index was found to be 3.09. In the case of AFKAAALFQRWYRRYVARLEMRRR [I8F], the protein stability index amounted to 2.29. Turning to AFKAAALAQRWYRRYVARLEMRRR [I8A], the protein stability index turned out to be 2.38.

On to AFKAAALMQRWYRRYVARLEMRRR [I8M], for which the protein stability index is 1.94. Consider AFKAAALKQRWYRRYVARLEMRRR [I8K], for which the protein stability index worked out at 3.15. With AFKAAALNQRWYRRYVARLEMRRR [I8N], the protein stability index came out at 2.98. Take AFKAAALDQRWYRRYVARLEMRRR [I8D]: the protein stability index turned out to be 3.02. For AFKAAALYQRWYRRYVARLEMRRR [I8Y] the value was 2.19.

The values are drawn from the supplement of paper PMC10567573.
